Results as given in publication PMC2265111 (The EMBO Journal, 2008).

Biological target: the molecule itself
Assay: crystal structure

B1: Rap1GAP Q204A (75–415) (domain or fragment)
chain: not shown
Question: Which “stoichiometry N” value does the source give for B1 here?
Answer: 2
